Residue numbers refer to the chain shown, from its start. Bridge positions count the residues as written; N and C are the ends. Peptide text beside a SMILES is read from it.

A short description of data set [1]: Liposome centrifugation assay, POPG liposomes. It is filed as physicochemical. Particulars: LUVs extruded through 0.1 μm filters, 10 mM HEPES pH 7.4, 150 mM NaCl; 10 μM toxin, 1 h room temperature, 30 min at 100,000 g; unbound toxin in supernatant by RP-HPLC; fit to partition equilibrium equation. Here is the method:
(§1) To investigate whether the micelle-binding interface identified by NMR-CSM faithfully reports on the lipid-binding interface of the peptide we used a previously reported liposome centrifugation assay[30] to study the interaction between VSTx1 and phospholipids with different head groups. VSTx1 was incubated with liposomes of different composition, then the liposomes were pelleted using ultracentrifugation and the amount of unbound VSTx1 in the supernatant was determined using reverse-phase (RP) HPLC (Fig. 4a,b). Partition coefficients (Kp) for binding of VSTx1 to liposomes were calculated by fitting to the partition equilibrium equation (see Eqn (3) in Materials and Methods). The Kp for binding to 1-palmitoyl-2-oleoyl-sn-glycero-3-phosphoglycerol (POPG) liposomes was 2.4 × 10^5 while the Kp values for binding to POPC or 1-palmitoyl-2-oleoyl-sn-glycero-3-phosphoethanolamine (POPE) liposomes were close to 0 (both <10^2) (Fig. 4e).
Large unilamellar vesicles (LUVs) were prepared by drying lipids (POPG and/or POPC, 25 mg/mL) under nitrogen gas, drying the lipid pellet under vacuum, and resuspending the lipids by vortexing for 1 h in an aqueous buffer containing 10 mM HEPES pH 7.4, and 150 mM NaCl. Vesicles were extruded 20 times using 0.1 μm polycarbonate filters (Avanti Polar Lipids, Inc.). Aqueous solutions of the toxin (10 μM) were incubated with varying amounts of vesicles for 1 h at room temperature, then the vesicles were centrifuged for 30 min at 100,000 g before the toxin concentration in the aqueous phase was determined. Aqueous concentrations of VSTx1 were quantified by RP-HPLC using a monolithic C18 column (4.6 × 100 mm). The toxin was eluted with a linear gradient of 10–50% solvent B (0.046% TFA in acetonitrile) in solvent A (0.05% TFA in water) over 10 min at a flow rate of 3 ml/min. The partition coefficients (Kp) for the binding of VSTx1 to liposomes were calculated by fitting to the partition equilibrium equation: […]

Data set [2] in a line: Liposome centrifugation assay, POPC liposomes. Particulars: LUVs, 10 mM HEPES pH 7.4, 150 mM NaCl; 10 μM toxin, 1 h room temperature, 30 min at 100,000 g; supernatant by RP-HPLC; close to 0. It is filed as physicochemical. Here is the method: as §1, with “The Kp for binding to 1-palmitoyl-2-oleoyl-sn-glycero-3-phosphoglycerol (POPG) liposomes was 2.4 × 10^5 while the Kp values for binding to POPC or 1-palmitoyl-2-oleoyl-sn-glycero-3-phosphoethanolamine (POPE) liposomes were close to 0 (both <10^2) (Fig. 4e).” left out
(§2) Large unilamellar vesicles (LUVs) were prepared by drying lipids (POPG and/or POPC, 25 mg/mL) under nitrogen gas, drying the lipid pellet under vacuum, and resuspending the lipids by vortexing for 1 h in an aqueous buffer containing 10 mM HEPES pH 7.4, and 150 mM NaCl. […] Aqueous solutions of the toxin (10 μM) were incubated with varying amounts of vesicles for 1 h at room temperature, then the vesicles were centrifuged for 30 min at 100,000 g before the toxin concentration in the aqueous phase was determined. Aqueous concentrations of VSTx1 were quantified by RP-HPLC using a monolithic C18 column (4.6 × 100 mm). […]

Data set [3] in a line: Liposome centrifugation assay, POPE liposomes. It is filed as physicochemical. Particulars: 10 μM toxin, 1 h room temperature, 30 min at 100,000 g, supernatant by RP-HPLC, close to 0. Here is the method:
as §1, with “The Kp for binding to 1-palmitoyl-2-oleoyl-sn-glycero-3-phosphoglycerol (POPG) liposomes was 2.4 × 10^5 while the Kp values for binding to POPC or 1-palmitoyl-2-oleoyl-sn-glycero-3-phosphoethanolamine (POPE) liposomes were close to 0 (both <10^2) (Fig. 4e).” left out
as §2

Data set [4] is described as follows: Liposome centrifugation assay, liposomes with POPG content reduced by 25%. Particulars: 10 mM HEPES pH 7.4, 150 mM NaCl, 10 μM toxin, 1 h room temperature, 30 min at 100,000 g, supernatant by RP-HPLC. It is filed as physicochemical. The procedure: as §1, with “The Kp for binding to 1-palmitoyl-2-oleoyl-sn-glycero-3-phosphoglycerol (POPG) liposomes was 2.4 × 10^5 while the Kp values for binding to POPC or 1-palmitoyl-2-oleoyl-sn-glycero-3-phosphoethanolamine (POPE) liposomes were close to 0 (both <10^2) (Fig. 4e).” left out
as §2

In another data set the target is T1, VSDK Q49A (UniProt Q9YDF8 19-160, Q49A).
T1 sequence: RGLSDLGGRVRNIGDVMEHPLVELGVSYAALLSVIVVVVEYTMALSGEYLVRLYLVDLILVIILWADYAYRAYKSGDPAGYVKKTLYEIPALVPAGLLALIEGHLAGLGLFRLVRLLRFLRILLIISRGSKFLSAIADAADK
In words: pull-down. Particulars: both partners purified.

The target of a further data set is T2, VSDK S51A (UniProt Q9YDF8 19-160, S51A).
T2 sequence: T1 sequence with A44Q, S46A
The data set is described as follows: pull-down. Particulars: both partners purified.

The target of the next data set is T3, VSDK E107A (UniProt Q9YDF8 19-160, E107A).
T3 sequence: T1 sequence with A44Q, E102A
The data set is described as follows: pull-down. Conditions: both partners purified.

Another data set concerns the target T4, VSDK R120A (UniProt Q9YDF8 19-160, R120A).
T4 sequence: T1 sequence with A44Q, R115A
In words: pull-down. Particulars: both partners purified.

The target in another data set is T5, VSDK E45A (UniProt Q9YDF8 19-160, E45A).
T5 sequence: T1 sequence with E40A, A44Q
The data set is described as follows: pull-down. Conditions: both partners purified.

In another data set the target is T6, VSDK Y46A (UniProt Q9YDF8 19-160, Y46A).
T6 sequence: T1 sequence with Y41A, A44Q
The data set is described as follows: pull-down. Particulars: both partners purified.

The next data set has as its target T7, VSDK T47A (UniProt Q9YDF8 19-160, T47A).
T7 sequence: T1 sequence with T42A, A44Q
The data set is described as follows: pull-down. Particulars: both partners purified.

Data set [5] concerns the target T8, isolated voltage-sensor domain of the voltage-gated potassium channel KvAP (VSDK), wild type (UniProt Q9YDF8 19-160).
T8 construct: also called WT VSDK; KvAP voltage sensor
T8 sequence: T1 sequence with A44Q
The data set is described as follows: NMR titration. Particulars: both partners purified.

Take `CSCC[C@@H]1NC(=O)[C@H](Cc2ccccc2)NC(=O)[C@H](CCCCN)NC(=O)CNC(=O)[C@@H](NC(=O)[C@H](CCC(=O)O)NC(=O)[C@@H](N)CO)CSSC[C@@H]2NC(=O)[C@@H]3CSSC[C@@H](C(=O)N[C@H](C(=O)N[C@@H](CC(C)C)C(=O)N[C@@H](C)C(=O)N[C@@H](CO)C(=O)N4CCC[C@H]4C(=O)N[C@@H](Cc4ccccc4)C(=O)O)C(C)C)NC(=O)[C@H](Cc4c[nH]c5ccccc45)NC(=O)[C@H](CCCCN)NC(=O)[C@H](Cc4c[nH]c5ccccc45)NC(=O)[C@H](CCCNC(=N)N)NC(=O)[C@H](CO)NC(=O)[C@H](CO)NC(=O)[C@H](CSSC[C@H](NC(=O)[C@H](CCCCN)NC(=O)[C@H](Cc4c[nH]c5ccccc45)NC1=O)C(=O)N[C@@H](CCCCN)C(=O)N[C@@H](CC(N)=O)C(=O)N[C@@H](CO)C(=O)N[C@@H](CC(N)=O)C(=O)N[C@@H](CC(=O)O)C(=O)N3)NC(=O)[C@H](C(C)C)NC(=O)[C@H](CC(C)C)NC(=O)[C@H](CC(=O)O)NC(=O)[C@H](CCCCN)NC2=O` [VSTx1] (H-SECGKFMWKCKNSNDCCKDLVCSSRWKWCVLASPF-OH; disulfide 3-17, 10-22, 16-29): the “Partition coefficient (Kp) for binding to POPG liposomes” value in data set [1] is on record as 2.4 × 10^5. Moreover, in data set [2], the “Partition coefficient (Kp) for binding to POPC liposomes” value is < 10^2. In addition, the “Partition coefficient (Kp) for binding to POPE liposomes” value in data set [3] is given as < 10^2. In [4], the “Partition coefficient (Kp), POPG content of liposomes reduced by 25%” value is given as 0.18 × 10^5.

B1: VSTx1 (recombinant, wild type) (peptide)
chain: SECGKFMWKCKNSNDCCKDLVCSSRWKWCVLASPF
notes: also called WT VSTx1; spider-venom peptide VSTx1; not shown: His6, N-terminal, cleaved; MBP, N-terminal, cleaved
As usually defined, the Kd is the constant that tells how readily two partners part at equilibrium. Low values mean higher affinity, high ones lower affinity. As for B1, the “percent decrease in binding against wild-type VSDK” value with VSDK Q49A came to 58%; with VSDK E107A, 59%; with VSDK E45A, 65%. In addition, the binding result in the data set with VSDK S51A, in the data set with VSDK R120A, in the data set with VSDK Y46A and with VSDK T47A was “binds” each time. This molecule also displayed a Kd in [5] of 140 µM.

(Values after paper PMC5039624 (Scientific Reports, 2016).)
